Results reported in the RNAGym collection of RNA variant scans (doi:10.7554/elife.80360).

B1: HDV Ribozyme (parent)
chain: GGCCGGCAUGGUCCCAGCCUCCUCGCUGGCGCCGGCUGGGCAACAUUCCGAGGGGACCGUCCCCUCGGUAAUGGCGAAUGGGACCCA

Variants of: B1
Test: self-cleavage, relative activity (ratio to wild type); higher = more cleavage; co-transcriptional

Row | Variant | self-cleavage
1 | GGCCGGCAUGGUCCCAGCAUCCUCGCUCGCGCCGGCUGGGCAACAUUCCGAGGGGACCGUCCCCUCGGUAAUGGCGAAUGGGACCCA [C19A G28C] | 0.0462
2 | GGCCGGCAUGGUCCCAGCCUCCUCGCUGGCGCCGGCUGGGCAACAUUCCGAGGGGACCGUCACCUCUGUAAUGGCGAAUGGGACCCA [C62A G67U] | 0.464
3 | GGCCGGCAUGGUCCCAGCCUCCUCGCUGGCGCCGGCUGGGCAACAUUCCGAGGGGACCGUCCCCUCUGUAAUGGCGAAUGCGACCCA [G67U G81C] | 0.305
4 | GGCCGGCAUGGUCGCAGCCUCCUCGCUGGCGCCGGCUGGGCAACAUUCCGAGGGGCCCGUCCCCUCGGUAAUGGCGAAUGGGACCCA [C14G A56C] | 0.646
5 | GGCCGGCAUGGUCCCAGCCUCCUCGCUGGCGCCGGCUGGGCAACAUUCCGAGGGGGCUGUCCCCUCGGUAAUGGCGAAUGGGACCCA [A56G C58U] | 0.862
6 | GGCCGGCAUGGUCCCAGCCUCCUCGCUGGCGACGGCUGGGCAACAUUCCGAGGGCACCGUCCCCUCGGUAAUGGCGAAUGGGACCCA [C32A G55C] | 0.133
7 | GGCCGGCAUGGUCCCAGCCUGCUCGCUGGCGCCGGCUGGGCAACAUUCCGAGGGGACCGUCCCCUCGGUAAUGCCGAAUGGGACCCA [C21G G74C] | 0.104
8 | GGCCGGGAUGGUCCCAGCCUCCUCGCUGGCGCCGGCUGGGCAACAUUCCGAGGAGACCGUCCCCUCGGUAAUGGCGAAUGGGACCCA [C7G G54A] | 0.302
9 | GGCCGGCAUGGUCCCAGCCACCUCGCUGGCGCCGGCUGGGCAAUAUUCCGAGGGGACCGUCCCCUCGGUAAUGGCGAAUGGGACCCA [U20A C44U] | 0
10 | GGCCGGCAUGGUCCCAGCCUCCUCGCUAGCGCCGGCUGGGCAACAUGCCGAGGGGACCGUCCCCUCGGUAAUGGCGAAUGGGACCCA [G28A U47G] | 0.268
11 | GGCCGGCAUGGUCCCAGCCUCCUCGCUGGCGCCGGCUGGGGAACAUUCCGAGGGGACCGUCCCCGCGGUAAUGGCGAAUGGGACCCA [C41G U65G] | 0.692
12 | GGCCGGCAUGGUCCCAGCCUCCUCGCUGGUGCCGGCUGGGCAACAUUCCGAGGGGACCGUCCCCGCGGUAAUGGCGAAUGGGACCCA [C30U U65G] | 0.506
13 | GGCAGGCAUGGUCCCAGCCUCCUCGCUGGCGCCGGCUGGGCAACAUUCCGAGCGGACCGUCCCCUCGGUAAUGGCGAAUGGGACCCA [C4A G53C] | 0.344
14 | GGCCGGCAUGGUCCCAGCCGCCUCGCUGGCGCCGGCUGGGCAACAUUCCGAGGGGACCGUCCCGUCGGUAAUGGCGAAUGGGACCCA [U20G C64G] | 0.196
15 | GGCCGGCGUGGUCCAAGCCUCCUCGCUGGCGCCGGCUGGGCAACAUUCCGAGGGGACCGUCCCCUCGGUAAUGGCGAAUGGGACCCA [A8G C15A] | 0.554
16 | GGACGGCAUGGUCCCAGCCUCCUCGCUGGCGCCGGCUGGGCAAUAUUCCGAGGGGACCGUCCCCUCGGUAAUGGCGAAUGGGACCCA [C3A C44U] | 0.145

Row | Variant | self-cleavage
17 | GGCCGGCAUGGUCCCAGCCUCCUCGCUGGCGCCGGCUGGGCAACAAUCCGAGGGGACCGUCUCCUCGGUAAUGGCGAAUGGGACCCA [U46A C62U] | 0.712
18 | GGCCGGCAUUGUCCCAGCCUCCUCGCUGGCGCCGGCUGGGCAACAUUCCAAGGGGACCGUCCCCUCGGUAAUGGCGAAUGGGACCCA [G10U G50A] | 0.62
19 | GGCCGGCAUGGUCCCAGCCUCCUCGCUGGCGCCGGCUGGGCAACAUUCCGAGGGGACCUUCCCCUCGGUAAUGGCGAAUAGGACCCA [G59U G80A] | 0.295
20 | GGCCGGCAUGGUCCCAGCCUCCUCGCUGGCGCCGGCUGGACAACAUUCCGAGGGGACCGUCCCCUCGGUAAUGGCGAAUGGGAGCCA [G40A C84G] | 0.594
21 | GGCCGGCAUGGUCCCAGCCUCCUCGCUGGCGCCGGCUGGGCAACGUUCCGAGGGGACCGUCCCCUCGGUAAUGGCGACUGGGACCCA [A45G A78C] | 0.237
22 | GGCCGGCAUGGUCCCAGCCUCCUCGCUGGCGCCGGCUUGGCAACAUUCCGAGGGGACCGACCCCUCGGUAAUGGCGAAUGGGACCCA [G38U U60A] | 0.175
23 | GGCCGGCAUGGUCCCAGCCUCCUAGGUGGCGCCGGCUGGGCAACAUUCCGAGGGGACCGUCCCCUCGGUAAUGGCGAAUGGGACCCA [C24A C26G] | 0.858
24 | GGCCGGCAUGGUCCCAGCCUCCUCGCUGGCGCCGGCUGGGCAACAUUACGAGGGGACCGUCCCCUCGGUAAUGGGGAAUGGGACCCA [C48A C75G] | 0.142
25 | GGCCGGCAGGGUCCCAGCCUCCUCGCUGGCGCCGGCUGGGCAACAUUCCGAGGGGACCGUCCCCUCGGUAAUGGUGAAUGGGACCCA [U9G C75U] | 0.222
26 | UGCCGGCAUGGCCCCAGCCUCCUCGCUGGCGCCGGCUGGGCAACAUUCCGAGGGGACCGUCCCCUCGGUAAUGGCGAAUGGGACCCA [G1U U12C] | 0.499
27 | GGCCGGCAUGGUCCCAGCCUCCUCGCUGGCGCCGGCUGGGCAACAUUCGGAGGGGACCGUCCCCUCGGUAAAGGCGAAUGGGACCCA [C49G U72A] | 0.0692
28 | GGCCGGUAUGGUCCCAGCCUGCUCGCUGGCGCCGGCUGGGCAACAUUCCGAGGGGACCGUCCCCUCGGUAAUGGCGAAUGGGACCCA [C7U C21G] | 0.0739
29 | GGCCGGCAUGGUCCCAGCCUCCUCGCUGGCGCCGGCUGGGCAACAUUCCGAGGGGACCGUCCCCUCGGCAAUGGCGAAGGGGACCCA [U69C U79G] | 1.16
30 | GGCCGGCAUGGUCCCAGCCUCCUCGCUCGCGCCGGCUGGGCAACAUUCCGACGGGACCGUCCCCUCGGUAAUGGCGAAUGGGACCCA [G28C G52C] | 0.229
31 | GGCCGGCAUGGUCCCAGCCUCCUCGCUGGCGCCGGCUGGGCAACAUUCCGAGGGGACCGACCCCUCGGUAAUGGCGAAUGAGACCCA [U60A G81A] | 0.514
32 | GGACGGCAUGGUCCCAGCCUCCUCGCUGGCGCCGGCUGGGCAACAUUCCGAGGGGACCGUCCCCUCGGUAAUGGCGAAUGGGACCGA [C3A C86G] | 0.745
